Measured values as given in US20240115668A1, “TREATMENT OF SPINAL CORD INJURY WITH PTEN INHIBITOR” (KOLON TISSUEGENE, INC., priority 2020, published 2024).
Where no end group is shown, it is not given here.

Key:
PTEN [1] = target: T1, PTEN (Homo sapiens, UniProt P60484); assay: In vitro PTEN activity assay / IC50 assay (Malachite Green phosphate detection, C8-PIP3 liposome substrate); type: biochemical; set-up: purchased R&D Systems, Inc; settings: 10 μM peptide, 20 ng recombinant human PTEN, 0.1 mM C8-PIP3 liposome
Target sequence in this assay (P60484 whole entry): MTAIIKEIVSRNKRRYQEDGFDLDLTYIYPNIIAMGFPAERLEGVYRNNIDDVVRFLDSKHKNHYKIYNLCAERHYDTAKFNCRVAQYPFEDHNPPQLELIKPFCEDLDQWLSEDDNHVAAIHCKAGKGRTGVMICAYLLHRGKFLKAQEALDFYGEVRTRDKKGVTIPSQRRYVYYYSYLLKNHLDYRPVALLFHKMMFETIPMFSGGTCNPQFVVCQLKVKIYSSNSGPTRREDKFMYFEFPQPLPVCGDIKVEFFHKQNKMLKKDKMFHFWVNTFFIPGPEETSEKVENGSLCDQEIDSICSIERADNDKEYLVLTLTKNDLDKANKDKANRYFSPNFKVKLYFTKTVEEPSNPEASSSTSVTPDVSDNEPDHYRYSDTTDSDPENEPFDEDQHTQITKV
Description: In vitro PTEN activity assay was designed to check PTEN lipid phosphatase activity to convert phosphatidylinositol triphosphate (PIP3) to phosphatidylinositol diphosphate (PIP2) and produce phosphate ion (Pi). 1,2-dioctanoyl-sn-glycero-3-phospho-(1′-myo-inositol-3,4,5-triphosphate) (C8-PIP3) was used as PTEN substrate and prepared as lipid vesicle (liposome) with other phospholipids because PTEN as lipid phosphatase is an interfacial enzyme. For liposome preparation, C8-PIP3, DOPS (1,2-dioeloyl-sn-glycero-phosphoserine) and DOPC (1,2-dioeloyl-sn-glycero-phosphocholine) were mixed together with 800 μL of liposome buffer (50 mM Tris, 100 mM NaCl, 10 mM MgCl2, 5 mM DTT, pH=8.0) to final concentration of 0.1 mM of C8-PIP3, 0.25 mM DOPS and 0.25 mM DOPC. The lipid mixture was then sonicated at 4° C. for 30 min to produce liposome. After sonication, the liposome solution was briefly centrifuged to remove remaining lipids.
For PTEN activity assay, 20 ng of recombinant human PTEN protein was mixed with L of completed liposome solution. PTEN assay buffer (1 mM Tris, 20 mM DTT and 0.5% NP-40, pH=8.0) was added up to 100 μL as final volume. […] After incubation, the inorganic phosphate ions produced by PTEN protein was detected using Malachite Green phosphate detection kit. […]
All data represent experimentation in triplicate and the IC50 values were calculated by Prism 5 software (GraphPad Software). […]

[2] = tested on: endogenous Akt protein in PC12 cells; assay: Western blot of Akt activation (phosphorylation) level in PC12 cell lysates; type: cell-based, rat; settings: differentiated PC12 cells, endogenous or overexpressed PTEN; TGN-1 10 and 100 μM, TGN-4 10 μM; 24 hr; anti-phospho Akt antibody
Protocol: PC12 rat pheochromocytoma cells were seeded to 6-well plate (0.6×10^6 cells/well) and cultured with DMEM media containing 7.5% FBS and 7.5% Goat Serum. After the cell confluency reached around 60˜ 70%, NGF (nerve growth factor, 50 ng/mL) was added to the PC12 cells for differentiation and incubated for 5 more days. Then, fresh media containing different amounts of TGN peptides in DMSO solution were added to each well and incubated further for 24 hr. For PTEN overexpression, PC12 cells were seeded in 6-well plate (1.0×10^6 cells/well) and differentiated with NGF (50 ng/mL) as above. DNA-Lipofectamine 2000 mixture was prepared for each well of cells to be transfected by firstly adding 2˜ 2.5 μg of human PTEN c-DNA into 500 μl of Opti-MEM. 3.75-8.75 μl of Lipofectamine 2000™ reagent was added next to the above diluted DNA solution, mixed gently and incubated for 25 minutes at room temperature. Growth media of PC12 cells in 6-well plate was exchanged with fresh media and 500 μl of the DNA-Lipofectamine 2000 complex was added to each well for transfection. Transfected cells were incubated at 37° C. in 5.0% CO2 incubator for 24-48 hours post-transfection before assaying for transgene expression.
After culturing, PC12 cells were collected from the 6-well plate and centrifuged down with bench-top centrifuger to make cell pellet (13,000 rpm, 5 min at RT). […]

PTEN [3] = target: T1, PTEN; settings: previous study of Odriozola et al.; read-out: IC50 (in vitro PTEN activity, Odriozola et al.); cited from earlier work
Target sequence in this assay (P60484 whole entry, species assumed): as the sequence (P60484 whole entry) above

## RRRRRRRR-DEHDTEYTPDYRQETHFNSQPTDKSDVI-amide (RRRRRRRRDEHDTEYTPDYRQETHFNSQPTDKSDVI-NH2) [TGN-5, scrambled peptide of TGN-2/TGN-3]
PTEN [1]
  Inhibition of PTEN activity (in words): no significant inhibition of PTEN activity

## RRRRRRRR-SDDEYTDNPDSRYVSDTPVDTEH-amide (RRRRRRRRSDDEYTDNPDSRYVSDTPVDTEH-NH2) [TGN-4, scrambled peptide of TGN-1, negative control]
[2]
  Activation (phosphorylation) level of Akt protein: did not increase the activation level of AKT protein
PTEN [1]
  Inhibition of PTEN activity (in words): no significant inhibition of PTEN activity

## Cp23: synthetic phosphomimic peptide of Odriozola et al. encompassing PTEN AA368-390, no phosphorylated Serine residues (DVSDNEPDHYRYSDTTDSDPENE; UniProt P60484 368-390, looked up, fragment)
PTEN [3]
  IC50: ~1030 µM
